The assay concerns the target endogenous PKM2 of murine PDA^T and PDA^M cells (mouse (endogenous in PDA^T and PDA^M cells)) (UniProt P52480). Put plainly: cross-linking.

In paper PMC9391305 one finds stoichiometry N data, which are given here for one substance.

By stoichiometry N is commonly meant a count of units in the complex or per binding partner.

Chain of endogenous PKM2 of murine PDA^T and PDA^M cells, P52480 1-531 (enzyme; other documents disagree on this pair) (P52480 whole entry): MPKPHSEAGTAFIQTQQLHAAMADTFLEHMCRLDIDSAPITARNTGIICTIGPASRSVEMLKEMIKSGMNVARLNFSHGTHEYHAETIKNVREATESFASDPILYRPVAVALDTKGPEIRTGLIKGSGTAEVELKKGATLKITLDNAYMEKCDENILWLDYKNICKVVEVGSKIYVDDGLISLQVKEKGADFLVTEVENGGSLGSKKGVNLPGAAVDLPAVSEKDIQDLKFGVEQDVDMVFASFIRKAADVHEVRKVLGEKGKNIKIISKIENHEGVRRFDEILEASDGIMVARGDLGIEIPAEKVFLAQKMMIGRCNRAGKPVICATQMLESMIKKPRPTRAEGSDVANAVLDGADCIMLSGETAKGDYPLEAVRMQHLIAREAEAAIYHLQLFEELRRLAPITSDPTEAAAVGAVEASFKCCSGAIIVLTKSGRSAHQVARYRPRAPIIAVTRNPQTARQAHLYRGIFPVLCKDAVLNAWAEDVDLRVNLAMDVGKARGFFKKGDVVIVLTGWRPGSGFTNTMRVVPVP

“endogenous PKM2 of murine PDA^T and PDA^M cells, P52480 1-531 (enzyme; other documents disagree on this pair)” gave a stoichiometry N of 4.
